T1: human recombinant IL-23 (human, UniProt P29460 23-328)
T1 construct: p19-p40 heterodimer; also called hrIL-23; hIL-23
T1 sequence 1: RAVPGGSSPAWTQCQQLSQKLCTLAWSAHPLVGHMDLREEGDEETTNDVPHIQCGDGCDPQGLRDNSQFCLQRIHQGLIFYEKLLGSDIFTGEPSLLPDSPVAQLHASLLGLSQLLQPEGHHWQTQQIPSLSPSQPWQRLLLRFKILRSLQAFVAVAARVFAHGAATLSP
T1 sequence 2: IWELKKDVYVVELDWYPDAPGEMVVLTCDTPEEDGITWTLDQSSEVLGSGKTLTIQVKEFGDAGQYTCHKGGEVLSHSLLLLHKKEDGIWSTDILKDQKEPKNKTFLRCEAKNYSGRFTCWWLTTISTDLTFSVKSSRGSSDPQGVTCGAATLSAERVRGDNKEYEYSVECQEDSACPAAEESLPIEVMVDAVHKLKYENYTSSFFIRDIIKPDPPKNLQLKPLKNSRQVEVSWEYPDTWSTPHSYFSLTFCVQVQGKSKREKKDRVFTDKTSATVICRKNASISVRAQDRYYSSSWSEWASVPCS

T2: human recombinant p40 monomer (human, UniProt P29460 23-328)
T2 construct: also called hrp40
T2 sequence (looked up): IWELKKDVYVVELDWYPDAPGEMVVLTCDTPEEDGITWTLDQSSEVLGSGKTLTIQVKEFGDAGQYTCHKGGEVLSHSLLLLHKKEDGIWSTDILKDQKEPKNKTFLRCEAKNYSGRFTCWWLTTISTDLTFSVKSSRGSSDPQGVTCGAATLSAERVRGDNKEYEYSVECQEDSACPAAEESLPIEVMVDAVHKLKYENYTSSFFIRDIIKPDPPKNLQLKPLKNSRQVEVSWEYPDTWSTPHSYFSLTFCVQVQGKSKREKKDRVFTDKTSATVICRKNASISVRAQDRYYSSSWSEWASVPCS

T3: human recombinant IL-12 (human, UniProt P29459 23-219; P29460 23-328)
T3 construct: p35-p40 heterodimer; also called hrIL-12
T3 sequence (looked up) 1: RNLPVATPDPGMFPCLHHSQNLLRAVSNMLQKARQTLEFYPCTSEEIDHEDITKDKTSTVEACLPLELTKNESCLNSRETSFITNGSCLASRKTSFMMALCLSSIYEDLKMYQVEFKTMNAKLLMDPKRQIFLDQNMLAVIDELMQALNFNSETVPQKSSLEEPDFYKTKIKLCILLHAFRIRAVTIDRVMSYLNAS
T3 sequence (looked up) 2: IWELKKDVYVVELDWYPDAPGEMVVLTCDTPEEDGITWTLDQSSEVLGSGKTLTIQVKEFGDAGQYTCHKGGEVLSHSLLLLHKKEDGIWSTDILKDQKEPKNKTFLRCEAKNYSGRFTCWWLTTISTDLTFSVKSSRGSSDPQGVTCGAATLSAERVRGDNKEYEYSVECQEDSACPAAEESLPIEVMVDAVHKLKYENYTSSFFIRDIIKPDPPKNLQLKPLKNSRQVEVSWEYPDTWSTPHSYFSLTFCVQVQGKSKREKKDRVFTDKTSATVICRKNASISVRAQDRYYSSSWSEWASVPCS

T4: murine IL-23 (mouse, UniProt Q9EQ14 22-196; P43432 23-335)
T4 construct: also called mouse IL-23
T4 sequence (looked up) 1: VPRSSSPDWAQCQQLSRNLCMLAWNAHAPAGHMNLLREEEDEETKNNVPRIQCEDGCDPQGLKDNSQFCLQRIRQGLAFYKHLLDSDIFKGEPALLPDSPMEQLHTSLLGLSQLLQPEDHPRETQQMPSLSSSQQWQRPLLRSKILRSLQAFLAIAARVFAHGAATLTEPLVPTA
T4 sequence (looked up) 2: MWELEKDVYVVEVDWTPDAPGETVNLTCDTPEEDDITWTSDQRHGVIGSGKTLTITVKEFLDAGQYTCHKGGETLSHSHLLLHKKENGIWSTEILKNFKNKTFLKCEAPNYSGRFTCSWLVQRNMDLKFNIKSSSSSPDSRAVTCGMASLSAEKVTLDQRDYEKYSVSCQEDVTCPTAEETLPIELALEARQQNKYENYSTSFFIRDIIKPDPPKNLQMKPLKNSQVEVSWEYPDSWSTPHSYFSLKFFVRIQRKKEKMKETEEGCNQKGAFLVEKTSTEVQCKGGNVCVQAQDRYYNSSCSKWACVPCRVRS


How the values were obtained:
human recombinant IL-23 [1] = molecular target: T1, human recombinant IL-23; experiment: blocking ELISA: biotinylated hrIL-23 preincubated with the titrated mAb, binding to plate-immobilized IL-23R detected with HRP-streptavidin
Experimental: (§1) In this experiment, IL-23R was immobilized on a plate. Biotinylated hrIL-23 was added to the plate either alone or after preincubation with individual IL-23p19 mAbs. Soluble IL-23R (IL-23R-Fc) was used as a positive control. IL-23 binding was detected with HRP-conjugated streptavidin. […] In contrast, when IL-12Rβ1 was immobilized on a plate, none of the IL-23p19 mAbs were able to inhibit IL-23/IL-12Rβ1 binding (data not shown).

[2] = molecular target: mutant human IL-23 protein 3220 (human) (UniProt P29460); experiment: MSD ELISA, coated IL-23 protein, Sulfo-TAG labeled mAb
[3] = molecular target: mutant human IL-23 protein 3397 (human) (UniProt P29460); experiment: as above
[4] = molecular target: T2, human recombinant p40 monomer; experiment: cytokine capture ELISA: mAb coated on the plate, cytokine at 100 ng/ml, detected with biotinylated anti-p40 mAb and HRP-streptavidin
Experimental: (§2) Purified mouse anti-human IL-23 mAbs were evaluated in cytokine capture ELISA to determine their antigen subunit specificity. Briefly, IL-23 mAbs were coated onto plates and incubated with 100 ng/ml (hr=human recombinant) hrIL-23, hrIL-12, and hrp40, respectively. Following incubation with biotinylated anti-p40 mAb, the binding was detected using HRP-conjugated streptavidin. An anti-p40 mAb and an anti-IL-12 mAb (20C2, Catalog No. 555065, BD Pharmingen, San Diego, Calif.) with known specificity were used as controls.

human recombinant IL-12 = molecular target: T3, human recombinant IL-12; experiment: as above
Experimental: as §2

murine IL-23 = molecular target: T4, murine IL-23; experiment: MSD ELISA: protein coated at 100 to 0 µg/mL, detected with 2 µg/mL Sulfo-TAG labeled mAb
Experimental: One-hundred and fifty μl of 5% MSD Blocker A buffer was added to each well and incubated for 1 hr at room temperature. Plates were washed three times with 0.1 M HEPES buffer, pH 7.4. These protein-charged ELISA micro-wells were incubated with 25 μl of 2 μg/mL MSD Sulfo-TAG labeled C1249, C1269, or CNTO 209 mAbs. After incubation for 2 hours with shaking at room temperature, plates were washed 3 times with 0.1 M HEPES buffer (pH 7.4). MSD Read Buffer T was diluted with distilled water (4 fold) and dispensed at a volume of 150 μl/well and analyzed with a SECTOR imager 6000.

human recombinant IL-23 [5] = molecular target: T1, human recombinant IL-23; experiment: competition ELISA: hIL-23 coated on the plate, 10 nM labeled C1269 mixed with the unlabeled competitor titrated from 3000 nM to 0
Experimental: […] of a 20 μg/ml hIL-23 coated on plate, mixed with 10 nM of labeled C1269 and serially diluted from 3000 nM to 0 unlabeled competitors, C1269 and C1249, in 25 μL. Relative binding was calculated by setting the signal in the absence of competitor to 100%.

human recombinant IL-23 [6] = molecular target: T1, human recombinant IL-23; experiment: blocking ELISA: biotinylated hrIL-23 preincubated with the titrated protein, binding to plate-immobilized IL-23R detected with HRP-streptavidin
Experimental: as §1

human recombinant IL-23 [7] = molecular target: T1, human recombinant IL-23; experiment: as above; remark: listed apart in the source
Experimental: as §1

human recombinant IL-23 [8] = molecular target: T1, human recombinant IL-23; experiment: ELISA: mAb immobilized on the plate, biotinylated IL-23 (bt.IL-23) titrated from about 0.01 to 100 ng/ml

| Binder | IC50 (read off the curve) (human recombinant IL-23 [1]) | percent reduction of binding activity against wild-type human IL-23 [2] | percent reduction of binding against wild-type human IL-23 [3] | binding result [4] | binding result (human recombinant IL-12) | binding result (murine IL-23) | IC50 (read off the curve) (human recombinant IL-23 [5]) | IC50 (read off the curve) (human recombinant IL-23 [6]) | IC50 (read off the curve) (human recombinant IL-23 [7]) | binding result (human recombinant IL-23 [8]) |
| --- | --- | --- | --- | --- | --- | --- | --- | --- | --- | --- |
| C1269 (antibody, V domains shown, Purified mouse monoclonal antibody; also called IL-23p19 mAb; mouse anti-human IL-23 mAb) VH: DVNLVESGGGLVKPGGSLKLSCAASGFTFSSYTMSWVRQTPEKRLEWVATISSGGTYTYYPDSVKGRFTISRDNAKNTLYLQMSSLKSEDTAIFYCTRDNHAYDRGPFFDSWGQGATLTVSS VL: DIVMSQSPSSLAVSVGEKVTMSCKSSQNLFYRNNQKNYLAWYQQKPGQSPTLLIYWTSTRESGVPDRFTGSGSGTDFTLTISRVKAEDLAVYYCQQYYSYPPTFGGGTKLEIK | ~0.07 µg/mL | > 80% | 90% | no binding (tested: 100 ng/ml) | no binding (tested: 100 ng/ml) | no binding | ~20 nM | – | – | – |
| C1273 (antibody, V domains shown, Purified mouse monoclonal antibody; also called IL-23p19 mAb; mouse anti-human IL-23 mAb) VH: DVNLVESGGGLVKPGGSLKLSCAASGFTFSSYTMSWVRQTPEKRLEWVATISSGGTYTYYPDSVKGRFTISRDNAKNTLYLQMSSLKSEDTAMFYCTRDNHAYDRGPFFDYWGQGATLTVSS VL: DIVMSQSPSSLVVSVGEKVTMSCKSSQNLFYRSNQKNHLAWYQQKPGQSPTLLIYWTSTRESGVPDRFTGSGSGTDFTLTISRVKAEDLAVYYCQQYYSYPPTFGGGTKLEIK | ~0.1 µg/mL | – | – | no binding (tested: 100 ng/ml) | no binding (tested: 100 ng/ml) | – | – | – | – | – |
| Soluble IL-23R (IL-23R-Fc) (Fc fusion, UniProt Q5VWK5 24-353, looked up, not shown: a dimerising Fc or GST) GITNINCSGHIWVEPATIFKMGMNISIYCQAAIKNCQPRKLHFYKNGIKERFQITRINKTTARLWYKNFLEPHASMYCTAECPKHFQETLICGKDISSGYPPDIPDEVTCVIYEYSGNMTCTWNAGKLTYIDTKYVVHVKSLETEEEQQYLTSSYINISTDSLQGGKKYLVWVQAANALGMEESKQLQIHLDDIVIPSAAVISRAETINATVPKTIIYWDSQTTIEKVSCEMRYKATTNQTWNVKEFDTNFTYVQQSEFYLEPNIKYVFQVRCQETGKRYWQPWSSLFFHKTPETVPQVTSKAFQHDTWNSGLTVASISTGHLTSDNRGD | – | – | – | – | – | – | – | ~0.04 µg/mL | ~0.05 µg/mL | – |

More lines, now with the values ahead:

| IC50 (read off the curve) (human recombinant IL-23 [1]) | percent reduction of binding activity against wild-type human IL-23 [2] | percent reduction of binding against wild-type human IL-23 [3] | binding result [4] | binding result (human recombinant IL-12) | binding result (murine IL-23) | IC50 (read off the curve) (human recombinant IL-23 [5]) | IC50 (read off the curve) (human recombinant IL-23 [6]) | IC50 (read off the curve) (human recombinant IL-23 [7]) | binding result (human recombinant IL-23 [8]) | Binder |
| --- | --- | --- | --- | --- | --- | --- | --- | --- | --- | --- |
| – | > 80% | 95% | no binding (tested: 100 ng/ml) | no binding (tested: 100 ng/ml) | no binding | – | – | – | binds | C1249 (antibody, V domains shown, Purified mouse monoclonal antibody; also called IL-23p19 mAb; mouse anti-human IL-23 mAb) VH: EVQLVESGGGLVQPKGSLKLSCAASGFNFNTYAMHWVCQAPGKGLEWIGRIRSKSHNYATDYADPVKDRFTISRDDSQGLLYLLMNNLKTEDTAMYYCMREGIYGSFAYWGQGTLVTVSA VL: DIVLTQSPASLAVSLGQRATISCRASKSVSSSAYSFFHWYQQKPGQPPKLLIYLASNLQSGVPARFSGSGSGTDFTLNIHPVEAEDAATYYCQHSGELPFTFGSGTKLEIK |
| – | – | – | no binding (tested: 100 ng/ml) | no binding (tested: 100 ng/ml) | – | – | – | – | binds | C1275 (antibody, V domains shown, Purified mouse monoclonal antibody; also called IL-23p19 mAb; mouse anti-human IL-23 mAb) VH: EVNLEESGGGLVQPGRSMKLSCVASGFTFSNYWMTWVRQSPEKGLEWVAEIRLKSNNYATHYAESVKGRFTISRDDSKSSVYLQMNNLRAEDTAIYYCTRGGGYDVGAWFAYWGQGTLVTVSA VL: DIVLTQSPASLAVSLGQRATISCRASENVEYYGTGLIQWYQQKPGQPPKLLIYASSNVESGVPARFSGSGSGTDFSLYIHPVEEDDIAMYFCQQSRKVPSTFGGGTKLEIK |

Reference: patent US20200138943A1 (Janssen / Centocor, published 2020)
